# Test results as given in patent publication US20110105394A1 (Novo Nordisk, published 2011).
# *1 amine or outer side, *2 acyl side, *3 side chain or, on linkers, in order; H or OH if unused. Bridges are numbered along the chain shown (N, C = ends). Where no end group is shown, it is not given here. The star is where a group is joined. X2 = (S)‑4‑Carboxy‑4‑(19-carboxynonadecanoylamino)butyryl, O=C(O)CCCCCCCCCCCCCCCCCCC(=O)N[C@@H](CCC(=O)*)C(=O)O; X1 = (S)‑4‑Carboxy‑4‑(17-carboxyheptadecanoylamino)butyryl, O=C(O)CCCCCCCCCCCCCCCCC(=O)N[C@@H](CCC(=O)*)C(=O)O; C20 diacid = O=C(O)CCCCCCCCCCCCCCCCCCC(=O)*; C18 diacid = O=C(O)CCCCCCCCCCCCCCCCC(=O)*; γGlu = O=C(O)[C@H](CCC(=O)[*:2])N[*:1]; AEEA = NCCOCCOCC(=O)O
# T1: Amylin 3(a) receptor (human calcitonin receptor (CTa) with RAMP-3) (human, UniProt P30988 25-474; O60896 24-148, limits assumed)
# T1 sequence (looked up) 1: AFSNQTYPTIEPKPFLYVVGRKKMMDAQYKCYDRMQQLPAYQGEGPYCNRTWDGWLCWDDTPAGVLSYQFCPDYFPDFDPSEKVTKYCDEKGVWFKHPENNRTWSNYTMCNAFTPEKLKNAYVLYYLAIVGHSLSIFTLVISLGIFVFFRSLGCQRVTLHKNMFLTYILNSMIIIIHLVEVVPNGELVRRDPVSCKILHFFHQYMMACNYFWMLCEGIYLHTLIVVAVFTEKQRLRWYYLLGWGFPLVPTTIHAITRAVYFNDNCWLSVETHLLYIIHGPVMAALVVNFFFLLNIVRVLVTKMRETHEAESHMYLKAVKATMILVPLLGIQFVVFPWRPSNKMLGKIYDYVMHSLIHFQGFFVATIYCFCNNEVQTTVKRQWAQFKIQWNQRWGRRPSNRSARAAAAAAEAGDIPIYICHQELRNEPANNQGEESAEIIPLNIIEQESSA
# T1 sequence (looked up) 2: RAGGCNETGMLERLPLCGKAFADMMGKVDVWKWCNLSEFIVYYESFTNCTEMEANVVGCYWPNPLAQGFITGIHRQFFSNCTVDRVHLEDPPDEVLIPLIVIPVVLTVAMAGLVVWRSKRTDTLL
# Biological target: T1, Amylin 3(a) receptor (human calcitonin …)
# Assay: cell-based or functional assay
row,Potency Luciferase [pmol/L],Binder
1,50,"X1-HHHCNTATCATQRLANFLHHSSNNFGPILPPTNVGSNTY-NH2 (disulfide 4-9; SMILES CC[C@H](C)[C@H](NC(=O)[C@@H]1CCCN1C(=O)CNC(=O)[C@H](Cc1ccccc1)NC(=O)[C@H](CC(N)=O)NC(=O)[C@H](CC(N)=O)NC(=O)[C@H](CO)NC(=O)[C@H](CO)NC(=O)[C@H](Cc1c[nH]cn1)NC(=O)[C@H](Cc1c[nH]cn1)NC(=O)[C@H](CC(C)C)NC(=O)[C@H](Cc1ccccc1)NC(=O)[C@H](CC(N)=O)NC(=O)[C@H](C)NC(=O)[C@H](CC(C)C)NC(=O)[C@H](CCCNC(=N)N)NC(=O)[C@H](CCC(N)=O)NC(=O)[C@@H](NC(=O)[C@H](C)NC(=O)[C@@H]1CSSC[C@H](NC(=O)[C@H](Cc2c[nH]cn2)NC(=O)[C@H](Cc2c[nH]cn2)NC(=O)[C@H](Cc2c[nH]cn2)NC(=O)CC[C@H](NC(=O)CCCCCCCCCCCCCCCCC(=O)O)C(=O)O)C(=O)N[C@@H](CC(N)=O)C(=O)N[C@@H]([C@@H](C)O)C(=O)N[C@@H](C)C(=O)N[C@@H]([C@@H](C)O)C(=O)N1)[C@@H](C)O)C(=O)N[C@@H](CC(C)C)C(=O)N1CCC[C@H]1C(=O)N1CCC[C@H]1C(=O)N[C@H](C(=O)N[C@@H](CC(N)=O)C(=O)N[C@H](C(=O)NCC(=O)N[C@@H](CO)C(=O)N[C@@H](CC(N)=O)C(=O)N[C@H](C(=O)N[C@@H](Cc1ccc(O)cc1)C(N)=O)[C@@H](C)O)C(C)C)[C@@H](C)O) [N-alpha-[(S)-4-Carboxy-4-(17-carboxyheptadecanoylamino)butyryl]-His-His-[His1,His17]-pramlintide]"
2,40,"{5‑carboxypentanoyl-γGlu}-HHHCNTATCATQRLANFLHHSSNNFGPILPPTNVGSNTY-NH2 (disulfide 4-9) [N-alpha-[(S)-4-Carboxy-4-(5-carboxypentanoylamino)butyryl]-His-His-[His1,His17]-pramlintide]"
3,40,{C18 diacid-γGlu-AEEA-AEEA}-CNTATCATQRLANFLHHSSNNFGPILPPTNVGSNTY-NH2 (disulfide 1-6)
4,70,CNTATCATQRLANFLHHSSNNFGPILPPTNVGSNTY-NH2 (disulfide 1-6; not fully specified (N-terminus); printed as N-alpha-[2-(2-{2-[2-(2-{2-[(S)-4-Carboxy-4-(19-carboxyheptadecanoylamino)butyrylamino]ethoxy}ethoxy)acetylamino]ethoxy}ethoxy)acetyl]-[His17]-pramlintide (2-37))
5,100,{C20 diacid-γGlu-AEEA}-HHRCNTATCATQRLANFLRHSSQNFGPILPPTNVGSNTY-NH2 (disulfide 4-9; SMILES CC[C@H](C)[C@H](NC(=O)[C@@H]1CCCN1C(=O)CNC(=O)[C@H](Cc1ccccc1)NC(=O)[C@H](CC(N)=O)NC(=O)[C@H](CCC(N)=O)NC(=O)[C@H](CO)NC(=O)[C@H](CO)NC(=O)[C@H](Cc1c[nH]cn1)NC(=O)[C@H](CCCNC(=N)N)NC(=O)[C@H](CC(C)C)NC(=O)[C@H](Cc1ccccc1)NC(=O)[C@H](CC(N)=O)NC(=O)[C@H](C)NC(=O)[C@H](CC(C)C)NC(=O)[C@H](CCCNC(=N)N)NC(=O)[C@H](CCC(N)=O)NC(=O)[C@@H](NC(=O)[C@H](C)NC(=O)[C@@H]1CSSC[C@H](NC(=O)[C@H](CCCNC(=N)N)NC(=O)[C@H](Cc2c[nH]cn2)NC(=O)[C@H](Cc2c[nH]cn2)NC(=O)COCCOCCNC(=O)CC[C@H](NC(=O)CCCCCCCCCCCCCCCCCCC(=O)O)C(=O)O)C(=O)N[C@@H](CC(N)=O)C(=O)N[C@@H]([C@@H](C)O)C(=O)N[C@@H](C)C(=O)N[C@@H]([C@@H](C)O)C(=O)N1)[C@@H](C)O)C(=O)N[C@@H](CC(C)C)C(=O)N1CCC[C@H]1C(=O)N1CCC[C@H]1C(=O)N[C@H](C(=O)N[C@@H](CC(N)=O)C(=O)N[C@H](C(=O)NCC(=O)N[C@@H](CO)C(=O)N[C@@H](CC(N)=O)C(=O)N[C@H](C(=O)N[C@@H](Cc1ccc(O)cc1)C(N)=O)[C@@H](C)O)C(C)C)[C@@H](C)O)
6,100,"X2-ERHRCNTATCATQRLANFLHHSSNNFGPILPPTNVGSNTY-NH2 (disulfide 5-10; SMILES CC[C@H](C)[C@H](NC(=O)[C@@H]1CCCN1C(=O)CNC(=O)[C@H](Cc1ccccc1)NC(=O)[C@H](CC(N)=O)NC(=O)[C@H](CC(N)=O)NC(=O)[C@H](CO)NC(=O)[C@H](CO)NC(=O)[C@H](Cc1c[nH]cn1)NC(=O)[C@H](Cc1c[nH]cn1)NC(=O)[C@H](CC(C)C)NC(=O)[C@H](Cc1ccccc1)NC(=O)[C@H](CC(N)=O)NC(=O)[C@H](C)NC(=O)[C@H](CC(C)C)NC(=O)[C@H](CCCNC(=N)N)NC(=O)[C@H](CCC(N)=O)NC(=O)[C@@H](NC(=O)[C@H](C)NC(=O)[C@@H]1CSSC[C@H](NC(=O)[C@H](CCCNC(=N)N)NC(=O)[C@H](Cc2c[nH]cn2)NC(=O)[C@H](CCCNC(=N)N)NC(=O)[C@H](CCC(=O)O)NC(=O)CC[C@H](NC(=O)CCCCCCCCCCCCCCCCCCC(=O)O)C(=O)O)C(=O)N[C@@H](CC(N)=O)C(=O)N[C@@H]([C@@H](C)O)C(=O)N[C@@H](C)C(=O)N[C@@H]([C@@H](C)O)C(=O)N1)[C@@H](C)O)C(=O)N[C@@H](CC(C)C)C(=O)N1CCC[C@H]1C(=O)N1CCC[C@H]1C(=O)N[C@H](C(=O)N[C@@H](CC(N)=O)C(=O)N[C@H](C(=O)NCC(=O)N[C@@H](CO)C(=O)N[C@@H](CC(N)=O)C(=O)N[C@H](C(=O)N[C@@H](Cc1ccc(O)cc1)C(N)=O)[C@@H](C)O)C(C)C)[C@@H](C)O) [N-alpha-[(S)-4-Carboxy-4-(19-carboxynonadecanoylamino)butyryl]-Glu-Arg-His-[Arg1,His17]-pramlintide]"
7,200,{C20 diacid-γGlu}-KCNTATCATQRLANFLHHSSNNFGPILPPTNVGSNTY-NH2 (disulfide 2-7) [N-alpha-[(S)-4-Carboxy-4-(19-carboxynonadecanoylamino)butyryl]-[His17]-pramlintide]
8,100,"X2-RHRCNTATCATQRLANFLHHSSNNFGPILPPTNVGSNTY-NH2 (disulfide 4-9; SMILES CC[C@H](C)[C@H](NC(=O)[C@@H]1CCCN1C(=O)CNC(=O)[C@H](Cc1ccccc1)NC(=O)[C@H](CC(N)=O)NC(=O)[C@H](CC(N)=O)NC(=O)[C@H](CO)NC(=O)[C@H](CO)NC(=O)[C@H](Cc1c[nH]cn1)NC(=O)[C@H](Cc1c[nH]cn1)NC(=O)[C@H](CC(C)C)NC(=O)[C@H](Cc1ccccc1)NC(=O)[C@H](CC(N)=O)NC(=O)[C@H](C)NC(=O)[C@H](CC(C)C)NC(=O)[C@H](CCCNC(=N)N)NC(=O)[C@H](CCC(N)=O)NC(=O)[C@@H](NC(=O)[C@H](C)NC(=O)[C@@H]1CSSC[C@H](NC(=O)[C@H](CCCNC(=N)N)NC(=O)[C@H](Cc2c[nH]cn2)NC(=O)[C@H](CCCNC(=N)N)NC(=O)CC[C@H](NC(=O)CCCCCCCCCCCCCCCCCCC(=O)O)C(=O)O)C(=O)N[C@@H](CC(N)=O)C(=O)N[C@@H]([C@@H](C)O)C(=O)N[C@@H](C)C(=O)N[C@@H]([C@@H](C)O)C(=O)N1)[C@@H](C)O)C(=O)N[C@@H](CC(C)C)C(=O)N1CCC[C@H]1C(=O)N1CCC[C@H]1C(=O)N[C@H](C(=O)N[C@@H](CC(N)=O)C(=O)N[C@H](C(=O)NCC(=O)N[C@@H](CO)C(=O)N[C@@H](CC(N)=O)C(=O)N[C@H](C(=O)N[C@@H](Cc1ccc(O)cc1)C(N)=O)[C@@H](C)O)C(C)C)[C@@H](C)O) [N-alpha-[(S)-4-Carboxy-4-(19-carboxynonadecanoylamino)butyryl]-Arg-His[Arg1,His17]-pramlintide]"
9,90,"HHRCNTATCATQRLANFLHHSSNNFGPILPPTNVGSNTY-NH2 (disulfide 4-9; not fully specified (N-terminus); printed as N-alpha-[(S)-4-Carboxy-4-(19-carboxynonadecanoylamino)butyryl]-His-His-[Arg1,His17]-pramlintide) [N-alpha-[(S)-4-Carboxy-4-(19-carboxynonadecanoylamino)butyryl]-His-His-[Arg1,His17]-pramlintide]"
10,50,"HRHCNTATCATQRLANFLHHSSNNFGPILPPTNVGSNTY-NH2 (disulfide 4-9; not fully specified (N-terminus); printed as N-alpha-[(S)-4-Carboxy-4-(19-carboxynonadecanoylamino)butyryl]-His-Arg-[His1,His17]-pramlintide) [N-alpha-[(S)-4-Carboxy-4-(19-carboxynonadecanoylamino)butyryl]-His-Arg-[His1,His17]-pramlintide]"
11,70,"{C20 diacid}-EKRCNTATCATQRLANFLHHSSNNFGPILPPTNVGSNTY-NH2 (disulfide 4-9; SMILES CC[C@H](C)[C@H](NC(=O)[C@@H]1CCCN1C(=O)CNC(=O)[C@H](Cc1ccccc1)NC(=O)[C@H](CC(N)=O)NC(=O)[C@H](CC(N)=O)NC(=O)[C@H](CO)NC(=O)[C@H](CO)NC(=O)[C@H](Cc1c[nH]cn1)NC(=O)[C@H](Cc1c[nH]cn1)NC(=O)[C@H](CC(C)C)NC(=O)[C@H](Cc1ccccc1)NC(=O)[C@H](CC(N)=O)NC(=O)[C@H](C)NC(=O)[C@H](CC(C)C)NC(=O)[C@H](CCCNC(=N)N)NC(=O)[C@H](CCC(N)=O)NC(=O)[C@@H](NC(=O)[C@H](C)NC(=O)[C@@H]1CSSC[C@H](NC(=O)[C@H](CCCNC(=N)N)NC(=O)[C@H](CCCCN)NC(=O)[C@H](CCC(=O)O)NC(=O)CCCCCCCCCCCCCCCCCCC(=O)O)C(=O)N[C@@H](CC(N)=O)C(=O)N[C@@H]([C@@H](C)O)C(=O)N[C@@H](C)C(=O)N[C@@H]([C@@H](C)O)C(=O)N1)[C@@H](C)O)C(=O)N[C@@H](CC(C)C)C(=O)N1CCC[C@H]1C(=O)N1CCC[C@H]1C(=O)N[C@H](C(=O)N[C@@H](CC(N)=O)C(=O)N[C@H](C(=O)NCC(=O)N[C@@H](CO)C(=O)N[C@@H](CC(N)=O)C(=O)N[C@H](C(=O)N[C@@H](Cc1ccc(O)cc1)C(N)=O)[C@@H](C)O)C(C)C)[C@@H](C)O) [N-alpha-[19-carboxynonadecanoyl]-Glu-Lys-[Arg1,His17]-pramlintide]"
